± gives the standard deviation of the averaged measurements.
Columns and labels:
Saccharomyces cerevisiae [1] = assay: protein stability index of tFT-peptide fusion (C-terminal peptide) (PSI (0-1 scale)); higher = more stable (slower turnover); conditions: genetic background: wild type; temperature: 30 C
Saccharomyces cerevisiae [2] = assay: as above
Procedure: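 MPS profiling in S. cerevisiae of the tFT-X12 degron library: putative degron peptides plus stable controls, 12 aa, fused to the C-terminus of a sfGFP-mCherry timer. Cells are FACS-sorted into 8 mCherry/sfGFP bins and deep-sequenced. PSI runs from 0 (unstable) to 1 (stable). Backgrounds are wild type, das1Δ and doa10Δ at 30 °C, and wild type, das1Δ, cdc34-1 and cdc53-1 at 37 °C; 2-3 technical replicates each.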

[3] = genetic background: cdc34-1, temperature: 37 C
[4] = genetic background: cdc53-1, temperature: 37 C
[5] = genetic background: das1 deletion, temperature: 30 C
[6] = genetic background: das1 deletion, temperature: 37 C
[7] = genetic background: doa10 deletion, temperature: 30 C
[8] = genetic background: wild type, temperature: 30 C
[9] = genetic background: wild type, temperature: 37 C
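Further: PSI is a weighted mean of sequencing reads over stability bins, variants kept only with over 10 reads, mCherry proximal and sfGFP distal, peptide attached via GGGS linker.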

Sequence	protein stability index (Saccharomyces cerevisiae [1])	protein stability index (Saccharomyces cerevisiae [2]; [3])	protein stability index (Saccharomyces cerevisiae [2]; [4])	protein stability index (Saccharomyces cerevisiae [2]; [5])	protein stability index (Saccharomyces cerevisiae [2]; [6])	protein stability index (Saccharomyces cerevisiae [2]; [7])	protein stability index (Saccharomyces cerevisiae [2]; [8])	protein stability index (Saccharomyces cerevisiae [2]; [9])
LGWFVDFVFVVW	0.4693 ± 0.0045	0.289 ± 0.0096	0.426 ± 0.037	0.27 ± 0.03	0.458 ± 0.012	0.244 ± 0.0045	0.274 ± 0.025	0.454 ± 0.0019
EFVACFRLLVHG	0.392 ± 0.014	0.3077 ± 0.003	0.368 ± 0.04	0.278 ± 0.021	0.441 ± 0.012	0.2322 ± 0.0015	0.269 ± 0.027	0.4091 ± 0.0033
EFFILYFFLKVL	0.199 ± 0.021	0.195 ± 0.007	0.274 ± 0.0064	0.21 ± 0.03	0.393 ± 0.0076	0.104 ± 0.01	0.116 ± 0.023	0.179 ± 0.0019
FHICTQLIFITC	0.192 ± 0.025	0.06103 ± 0.00047	0.0651 ± 0.015	0.146 ± 0.029	0.198 ± 0.0078	0.114 ± 0.0037	0.127 ± 0.0084	0.145 ± 0.0024
CLWNFWVRFLLL	0.175 ± 0.022	0.298 ± 0.042	0.406 ± 0.023	0.399 ± 0.014	0.509 ± 0.015	0.164 ± 0.0046	0.139 ± 0.01	0.135 ± 0.0083
VIWVLGALASWG	0.556 ± 0.098	0.5892 ± 0.0018	0.6304 ± 0.0041	0.479 ± 0.035	0.632 ± 0.011	0.468 ± 0.02	0.479 ± 0.0059	0.618 ± 0.015
LFFFVCYLATVK	0.276 ± 0.053	0.198 ± 0.0088	0.347 ± 0.11	0.23 ± 0.032	0.416 ± 0.017	0.166 ± 0.011	0.191 ± 0.02	0.326 ± 0.0072
LLVLRQYFFFFV	0.295 ± 0.027	0.462 ± 0.026	0.531 ± 0.013	0.468 ± 0.035	0.606 ± 0.017	0.238 ± 0.012	0.224 ± 0.022	0.401 ± 0.011
LFTVCMIIQMVH	0.177 ± 0.017	0.0516 ± 0.003	0.185 ± 0.0029	0.145 ± 0.036	0.273 ± 0.02	0.0793 ± 0.0011	0.1 ± 0.055	0.173 ± 0.016
QILVSYSFLYFF	0.509 ± 0.1	0.5506 ± 0.0046	0.592 ± 0.041	0.44 ± 0.03	0.609 ± 0.023	0.3549 ± 0.0034	0.38 ± 0.017	0.539 ± 0.0058
MLCVFVFIWYFV	0.235 ± 0.011	0.235 ± 0.03	0.279 ± 0.013	0.254 ± 0.011	0.359 ± 0.0048	0.218 ± 0.013	0.208 ± 0.024	0.307 ± 0.02
CSLFFFRLIFTL	0.0826 ± 0.014	0.101 ± 0.025	0.185 ± 0.026	0.219 ± 0.032	0.339 ± 0.0091	0.0783 ± 0.0034	0.0603 ± 0.017	0.0702 ± 0.01
RCTFSFSFPFVL	0.596 ± 0.15	0.738 ± 0.032	0.754 ± 0.034	0.601 ± 0.0084	0.768 ± 0.0096	0.5998 ± 0.0024	0.602 ± 0.023	0.729 ± 0.011
SYVRLDLFFFLG	0.568 ± 0.11	0.517 ± 0.069	0.591 ± 0.03	0.491 ± 0.012	0.5727 ± 0.0048	0.46 ± 0.038	0.472 ± 0.026	0.5357 ± 0.0037
MLTYVVRSLVGY	0.422 ± 0.029	0.484 ± 0.0066	0.4954 ± 0.0015	0.37 ± 0.045	0.527 ± 0.011	0.331 ± 0.017	0.375 ± 0.023	0.496 ± 0.018
VPRSLYSVLRLA	0.2 ± 0.025	0.525 ± 0.062	0.685 ± 0.026	0.652 ± 0.044	0.714 ± 0.012	0.0744 ± 0.01	0.0833 ± 0.0025	0.11 ± 0.0054
GVVCCGFFFLVV	0.464 ± 0.016	0.475 ± 0.012	0.525 ± 0.028	0.401 ± 0.024	0.57 ± 0.018	0.363 ± 0.0058	0.41 ± 0.04	0.528 ± 0.055
